Source: patent publication US5808025

Assays:
[1] = molecular target: chimeric selectin L2P (human) (UniProt P16109)
[2] = molecular target: chimeric selectin L2P3L (human) (UniProt P16109)

**Q.** With LAM1-3 mAb (antibody) as the substance, how does the lymphocytes bound/HEV (lymphocytes bound/HEV) [1] read?
**A.** Its lymphocytes bound/HEV (lymphocytes bound/HEV) is 0.074.

**Q.** And the lymphocytes bound/HEV (lymphocytes bound/HEV) [2]?
**A.** Its lymphocytes bound/HEV (lymphocytes bound/HEV) is 0.08.

**Q.** And the lymphocytes bound/HEV (lymphocytes bound/HEV) (L-selectin (human))?
**A.** Its lymphocytes bound/HEV (lymphocytes bound/HEV) is 0.05.
